Data taken from patent US20170298096A1 (CANIMGUIDE THERAPEUTICS, published 2017).
No end group written: not given here.

T1: His-tagged P3028 peptide (PGE73) (human)
T1 construct: also called His-tag-P3028; not shown: His-tag
T1 peptide: VFDEFKPLVEEPQNLIK

B1: trypsin-generated albumin fragment SEQ ID NO: 204 … (peptide)
peptide: CCAAADPHECYAK
B2: trypsin-generated albumin fragment SEQ ID NO: 206 … (peptide)
peptide: CCTESLVNR
B3: Asp-N-generated albumin fragment SEQ ID NO: 229 (peptide)
peptide: RVTKCCTESLVNRRPCFSALEVDETYVPKEFNAETFTFHA
B4: trypsin-generated albumin fragment SEQ ID NO: 203 YLYEIAR (peptide)
peptide: YLYEIAR
B5: trypsin-generated albumin fragment SEQ ID NO: 208 … (peptide)
peptide: AVMDDFAAFVEK
B6: trypsin-generated albumin fragment SEQ ID NO: 199 FQNALLVR (peptide)
peptide: FQNALLVR
B7: Asp-N-generated albumin fragment SEQ ID NO: 226 (peptide)
peptide: LAKYICENQDSISSKLKECCEKPLLEKHCIAEVEN
B8: Asp-N-generated albumin fragment SEQ ID NO: 218 (peptide)
peptide: DDKETCFAEEGKKLVAASQAALGL
B9: trypsin-generated albumin fragment SEQ ID NO: 213 … (peptide)
peptide: FKDLGEENFK
B10: trypsin-generated albumin fragment SEQ ID NO: 194 KYLYEIAR (peptide)
peptide: KYLYEIAR
B11: Asp-N-generated albumin fragment SEQ ID NO: 224 (peptide)
peptide: KLCTVATLRETYGEMADCCAKQEPERNECFLQHK
B12: trypsin-generated albumin fragment SEQ ID NO: 198 … (peptide)
peptide: RPCFSALEVDETYVPK
B13: trypsin-generated albumin fragment SEQ ID NO: 211 … (peptide)
peptide: QEPERNECFLQHK
modifications: not fully specified
B14: trypsin-generated albumin fragment SEQ ID NO: 212 … (peptide)
peptide: VHTECCHGDLLECADDR
B15: trypsin-generated albumin fragment SEQ ID NO: 214 … (peptide)
peptide: YICENQDSISSK
B16: Asp-N-generated albumin fragment SEQ ID NO: 225 (peptide)
peptide: ICTLSEKERQIKKQTALVELVKHKPKATKEQLKAVM
B17: Asp-N-generated albumin fragment SEQ ID NO: 221 (peptide)
peptide: DSISSKLKECCEKPLLEKSHCIAEVEN
B18: trypsin-generated albumin fragment SEQ ID NO: 200 … (peptide)
peptide: SLHTLFGDK
B19: trypsin-generated albumin fragment SEQ ID NO: 202 LCTVATLR (peptide)
peptide: LCTVATLR
B20: Asp-N-generated albumin fragment SEQ ID NO: 219 (peptide)
peptide: DRVTKCCTESLVNRRPCFSALEV
B21: Asp-N-generated albumin fragment SEQ ID NO: 223 (peptide)
peptide: YSVVLLLRLAKTYETTLEKCCAAADPHECYAKVF
B22: Asp-N-generated albumin fragment SEQ ID NO: 217 (peptide)
peptide: DHVKLVNEVTEFAKTCVA
B23: Asp-N-generated albumin fragment SEQ ID NO: 228 (peptide)
peptide: LGEENFKALVLIAFAQYLQQCPFEDHVKLVNEVTEFAKTCVA
B24: Asp-N-generated albumin fragment SEQ ID NO: 230 (peptide)
peptide: YLSVVLNQLCVLHEKTPVSDRVTKCCCTESLVNRRPFSALEV
B25: Asp-N-generated albumin fragment SEQ ID NO: 227 (peptide)
peptide: VFLGMFLYEYARRHPDYSVVLLLRLAKTYETTLEKCCAAA
B26: Asp-N-generated albumin fragment SEQ ID NO: 220 (peptide)
peptide: DETYVPKEFNAETFTHA
B27: Asp-N-generated albumin fragment SEQ ID NO: 222 (peptide)
peptide: DKLCTVATLRETYGEM
B28: trypsin-generated albumin fragment SEQ ID NO: 205 … (peptide)
peptide: AAFTECCQAADK
B29: trypsin-generated albumin fragment SEQ ID NO: 207 … (peptide)
peptide: QEPERNECFLQHK
modifications: not fully specified
B30: trypsin-generated albumin fragment SEQ ID NO: 215 … (peptide)
peptide: LDELRDEGK
B31: trypsin-generated albumin fragment SEQ ID NO: 209 NECFLQHK (peptide)
peptide: NECFLQHK
B32: trypsin-generated albumin fragment SEQ ID NO: 196 … (peptide)
peptide: VFDEFKPLVEEPQNLIK
B33: trypsin-generated albumin fragment SEQ ID NO: 216 DDNPNLPR (peptide)
peptide: DDNPNLPR
B34: trypsin-generated albumin fragment SEQ ID NO: 197 … (peptide)
peptide: VPQVSTPTLVEVSR
B35: trypsin-generated albumin fragment SEQ ID NO: 201 … (peptide)
peptide: LKECCEKPLLEK
B36: trypsin-generated albumin fragment SEQ ID NO: 195 … (peptide)
peptide: KVPQVSTPTLVEVSR
B37: SEQ ID NO: 7 (peptide)
peptide: KKLDTAFVKLSLFTER
notes: P28R variant on PEPSCAN card
B38: SEQ ID NO: 8 (peptide)
peptide: KKLDTVFVKLSLFTER
notes: P28R variant on PEPSCAN card
B39: SEQ ID NO: 3 (peptide)
peptide: RKLDTFFVKLSLFTER
notes: P28R variant on PEPSCAN card
B40: SEQ ID NO: 16 (peptide)
peptide: KKLDTFFVKLMLFTER
notes: P28R variant on PEPSCAN card
B41: SEQ ID NO: 17 (peptide)
peptide: KKLDTFFVKLTLFTER
notes: P28R variant on PEPSCAN card
B42: SEQ ID NO: 18 (peptide)
peptide: KKLDTFFVKLHLFTER
notes: P28R variant on PEPSCAN card
B43: SEQ ID NO: 23 (peptide)
peptide: KKLDTFFVKLSLQTER
notes: P28R variant on PEPSCAN card
B44: SEQ ID NO: 29 (peptide)
peptide: KKLDTFFVKLSLATER
notes: P28R variant on PEPSCAN card
B45: SEQ ID NO: 26 (peptide)
peptide: KKLDTFFVKLSLPTER
notes: P28R variant on PEPSCAN card
B46: SEQ ID NO: 28 (peptide)
peptide: KKLDTFFVKLSLGTER
notes: P28R variant on PEPSCAN card
B47: SEQ ID NO: 30 (peptide)
peptide: KKLDTFFVKLSLRTER
notes: P28R variant on PEPSCAN card
B48: SEQ ID NO: 24 (peptide)
peptide: KKLDTFFVKLSLHTER
notes: P28R variant on PEPSCAN card
B49: SEQ ID NO: 25 (peptide)
peptide: KKLDTFFVKLSLNTER
notes: P28R variant on PEPSCAN card
B50: SEQ ID NO: 27 (peptide)
peptide: KKLDTFFVKLSLSTER
notes: P28R variant on PEPSCAN card
B51: SEQ ID NO: 9 (peptide)
peptide: KKLDTFMVKLSLFTER
notes: P28R variant on PEPSCAN card
B52: SEQ ID NO: 13 (peptide)
peptide: KKLDTFLVKLSLFTER
notes: P28R variant on PEPSCAN card
B53: SEQ ID NO: 11 (peptide)
peptide: KKLDTFVVKLSLFTER
notes: P28R variant on PEPSCAN card
B54: SEQ ID NO: 12 (peptide)
peptide: KKLDTFTVKLSLFTER
notes: P28R variant on PEPSCAN card
B55: SEQ ID NO: 10 (peptide)
peptide: KKLDTFSVKLSLFTER
notes: P28R variant on PEPSCAN card
B56: SEQ ID NO: 31 (peptide)
peptide: KKLDTFFVKLSLFNER
notes: P28R variant on PEPSCAN card
B57: SEQ ID NO: 546 (peptide)
peptide: CKLDTFFVKLSLFTER
notes: P28R variant on PEPSCAN card
B58: SEQ ID NO: 578 (peptide)
peptide: KKLDTFFVKDSLFTER
notes: P28R variant on PEPSCAN card
B59: SEQ ID NO: 582 (peptide)
peptide: KKLDTFFVKESLFTER
notes: P28R variant on PEPSCAN card
B60: SEQ ID NO: 548 (peptide)
peptide: KKLDTFFVKLLLFTER
notes: P28R variant on PEPSCAN card
B61: SEQ ID NO: 575 (peptide)
peptide: KKLDTFFVKLSLDTER
notes: P28R variant on PEPSCAN card
B62: SEQ ID NO: 579 (peptide)
peptide: KKLDTFFVKLSLETER
notes: P28R variant on PEPSCAN card
B63: SEQ ID NO: 542 (peptide)
peptide: KKLDTFFVKLSLKTER
notes: P28R variant on PEPSCAN card
B64: SEQ ID NO: 574 (peptide)
peptide: KKLDTFFDKLSLFTER
notes: P28R variant on PEPSCAN card
B65: SEQ ID NO: 567 (peptide)
peptide: KKLDTFFVKLSLFDER
notes: P28R variant on PEPSCAN card
B66: SEQ ID NO: 576 (peptide)
peptide: KKLDTFFVKLSLFEER
notes: P28R variant on PEPSCAN card
B67: SEQ ID NO: 580 (peptide)
peptide: KKLDTFFVKLSDFTER
notes: P28R variant on PEPSCAN card
B68: SEQ ID NO: 581 (peptide)
peptide: KKLDTFFVKLSEFTER
notes: P28R variant on PEPSCAN card

Target: Artificial Cell Surface (ACS): biotinylated cell surface proteins from mononuclear cells coupled to streptavidin-sepharose
Assay: adsorption on ACS column, MALDI-TOF MS

Compared with B1, B2 is lower in Percent Absorbed: 32% for the first, 26% for the second.

First: B3
Second: B4
The Percent Absorbed of the first is higher: 100% for the first, 34% for the second.

First: B5
Second: B6
The Percent Absorbed of the first is lower: 23% for the first, 41% for the second.

B7 and B8 are the same in Percent Absorbed: 100% for the first, 100% for the second.

Compared with B9, B10 is higher in Percent Absorbed: 8% for the first, 71% for the second.

First: B11
Second: B12
The Percent Absorbed of the first is higher: 100% for the first, 42% for the second.

Going from B13 to B14, the Percent Absorbed falls from 18% to 13%.

First: B15
Second: B16
The Percent Absorbed of the first is lower: 3% for the first, 100% for the second.

Going from B17 to B18, the Percent Absorbed falls from 65% to 36%.

Compared with B19, B20 is higher in Percent Absorbed: 35% for the first, 87% for the second.

B21 and B22 are the same in Percent Absorbed: 100% for the first, 100% for the second.

Compared with B23, B24 is lower in Percent Absorbed: 100% for the first, 37% for the second.

Compared with B25, B26 is lower in Percent Absorbed: 100% for the first, 86% for the second.

First: B27
Second: B28
The Percent Absorbed of the first is higher: 65% for the first, 29% for the second.

Compared with B29, B30 is lower in Percent Absorbed: 25% for the first, 2% for the second.

Compared with B31, B32 is higher in Percent Absorbed: 22% for the first, 60% for the second.

Going from B33 to B34, the Percent Absorbed rises from 1% to 59%.

Going from B35 to B36, the Percent Absorbed rises from 36% to 64%.

Target: T1, His-tagged P3028 peptide (PGE73)
Assay: PEPSCAN ELISA; peptide on card, His-tagged P3028 in solution
Description: (§1) After washing, the peroxidase substrate 2,2′-azine-di-3-ethylbenzthiazoline sulfonate (ABTS) and 2 μL of 3% H2O2 were added. The binding capacity of the mAb was measured as a color development at 405 nm (optical density, OD405). The color development was quantified with a charge-coupled device (CCD)—camera and an image processing system.
(§2) The OD405-values obtained by a CCD-camera was considered as raw data values (“rampo values,” “rampo units,” or “rampo scores”). […] First the CCD-camera made a picture of the card before peroxidase coloring and then again a picture after the peroxidase coloring. […] These values were copied into an excel file and labeled as a raw data file. One follow-up manipulation was allowed. Sometimes a well can contain an air-bubble resulting in a false-positive value. If manual inspection of the cards detect an air-bubble the value are set to 0 for that well.

B37 and B38 cannot be ordered by RAMPO Score: greater than 500 rampo units for the first, greater than 500 rampo units for the second.

B39 and B40 cannot be ordered by RAMPO Score: greater than 500 rampo units for the first, greater than 500 rampo units for the second.

B41 and B42 cannot be ordered by RAMPO Score: greater than 500 rampo units for the first, greater than 500 rampo units for the second.

B43 and B44 cannot be ordered by RAMPO Score: greater than 500 rampo units for the first, greater than 500 rampo units for the second.

B45 and B46 cannot be ordered by RAMPO Score: greater than 500 rampo units for the first, greater than 500 rampo units for the second.

B47 and B48 cannot be ordered by RAMPO Score: greater than 500 rampo units for the first, greater than 500 rampo units for the second.

B49 and B50 cannot be ordered by RAMPO Score: greater than 500 rampo units for the first, greater than 500 rampo units for the second.

B51 and B52 cannot be ordered by RAMPO Score: greater than 500 rampo units for the first, greater than 500 rampo units for the second.

B53 and B54 cannot be ordered by RAMPO Score: greater than 500 rampo units for the first, greater than 500 rampo units for the second.

B55 and B56 cannot be ordered by RAMPO Score: greater than 500 rampo units for the first, greater than 500 rampo units for the second.

Target: T1, His-tagged P3028 peptide (PGE73)
Assay: as above
Remark: another data set of the same source
Description: as §1, §2

First: B57
Second: B58
The “RAMPO Score” value of the first is higher: 215 rampo units for the first, 102 rampo units for the second.

Going from B59 to B60, the “RAMPO Score” value rises from 81 rampo units to 213 rampo units.

Compared with B61, B62 is lower in “RAMPO Score” value: 112 rampo units for the first, 98 rampo units for the second.

Going from B63 to B64, the “RAMPO Score” value falls from 220 rampo units to 122 rampo units.

First: B65
Second: B66
The “RAMPO Score” value of the first is higher: 159 rampo units for the first, 110 rampo units for the second.

Compared with B67, B68 is lower in “RAMPO Score” value: 89 rampo units for the first, 82 rampo units for the second.
